Assay results reported in publication doi:10.1101/2025.07.31.667872 (bioRxiv, 2025).

Legend:
Settings in all cases: both partners purified
[1] = molecular target: T1, RPN13 Pru (1–150), reduced (UniProt Q16186 1-150); assay: ITC; RPN2 (940–953) in the syringe (156 μM), RPN13 Pru in the cell (15.6 μM); 25 °C, reducing buffer: 20 mM sodium phosphate, 50 mM NaCl, 10 mM βME, pH 6.0; one-site fit
T1 construct: Kept in reducing ITC buffer (10 mM βME); also called redu RPN13^Pru; RPN13 (1–150); source: E. coli BL21(DE3) pLysS, purified (Talon resin, PreScission elution, Superdex 75); not shown: His6, N-terminal, cleaved

[2] = molecular target: T2, RPN13 Pru (1–150), oxidized (UniProt Q16186 1-150, oxidized with 0.05 % H2O2; the oxidized residues are not given); assay: ITC; RPN2 (940–953) in the syringe (205.7 or 160 μM), RPN13 Pru in the cell (20.57 or 16 μM); 25 °C, non-reducing buffer: 20 mM sodium phosphate, 50 mM NaCl, pH 6.0; one-site fit
T2 construct: RPN13 Pru domain, residues 1-150; also called oxi-RPN13^Pru; not shown: His6, N-terminal, cleaved

[3] = molecular target: T3, oxi-RPN13^Pru following incubation with 3-fold molar excess TXNL1^Trx (UniProt Q16186 1-150, oxidized with 0.05 % H2O2, then treated with TXNL1 Trx); assay: as above
T3 construct: RPN13 Pru domain, residues 1-150; source: E. coli BL21(DE3) pLysS, purified; not shown: His6, N-terminal, cleaved
T3 sequence (Q16186 1-150): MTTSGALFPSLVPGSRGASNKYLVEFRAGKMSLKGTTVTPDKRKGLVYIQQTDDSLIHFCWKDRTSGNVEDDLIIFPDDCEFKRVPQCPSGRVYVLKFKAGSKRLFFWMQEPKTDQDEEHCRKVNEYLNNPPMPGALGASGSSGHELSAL

T1 sequence (Q16186 1-150): as above
T2 sequence (Q16186 1-150): as above

Kd [1]: 12.4 ± 5.29 nM | Kd [2]: 40 ± 15.3 nM | Kd [3]: 18.9 ± 5.7 nM
B1: RPN2 peptide (940–953) (peptide, UniProt Q99460 940-953, looked up)
chain: QEPEPPEPFEYIDD
notes: The construct has a PreScission site after GST, but the methods tell only of elution as the GST fusion; ITC and NMR speak of the RPN2 peptide; also called RPN2 (940–953); RPN2^940–953
